Data as given in publication PMC5339705, “OGG1-DNA interactions facilitate NF-κB binding to DNA targets”.

B1: κB2-G3 (dsDNA)
DNA 1: TGAGGGGACCCTGAGCTCAGGGAATTTCCCTGG
DNA 2: CCAGGGAAATTCCCTGAGCTCAGGGTCCCCTCA
modifications: 8-oxoG at strand 1 position 4 (number label read as following the base)
B2: κB2-G4 (dsDNA)
DNA 1: B1 DNA 1
DNA 2: B1 DNA 2
modifications: 8-oxoG at strand 1 position 7
B3: κB2-G6 (dsDNA)
DNA 1: B1 DNA 1
DNA 2: B1 DNA 2
modifications: 8-oxoG at strand 2 position 23 (opposite C11 of strand 1)
B4: κB2-Wt (dsDNA)
DNA 1: B1 DNA 1
DNA 2: B1 DNA 2
B5: κB1-G3 (dsDNA)
DNA 1: TTCCCTGGTCCCCGGGCTTTTCCAGACATCG
DNA 2: CGATGTCTGGAAAAGCCCGGGGACCAGGGAA
modifications: 8-oxoG at strand 2 position 27 (opposite C5 of strand 1)

Assays:
Details in all cases: protein: commercial;commercial; tags: ;; copies: 1;1; label: 5' biotin on strand 2; blunt
p65 (RelA);p50 (NF-kB1) [1] = target: T1, p65 (RelA);p50 (NF-kB1) (;, UniProt Q04206;P19838 1-551;1-433, |); experiment: EMSA; with OGG1 4 ng; higher than Wt; 10 mM Tris-HCl pH 8.0, 5 mM NaCl, 1 mM EDTA, 1 mM DTT, 0.1 mg/ml BSA, 0.1 µg/µl poly(dI-dC) (stated for NE reactions), 10 fmol probe, 10 µl, RT 5-10 min; 6% gel 0.5x TBE 4 °C
p65 (RelA);p50 (NF-kB1) [2] = target: T1, p65 (RelA);p50 (NF-kB1); experiment: EMSA; no OGG1; complex from 5 min; 10 mM Tris-HCl pH 8.0, 5 mM NaCl, 1 mM EDTA, 1 mM DTT, 0.1 mg/ml BSA, 0.1 µg/µl poly(dI-dC) (stated for NE reactions), 10 fmol probe, 10 µl, RT 5-10 min; 6% gel 0.5x TBE 4 °C
p65 (RelA);p50 (NF-kB1) [3] = target: T1, p65 (RelA);p50 (NF-kB1); experiment: EMSA; with OGG1 4 ng; highest shifted amount of κB1 oligos; 10 mM Tris-HCl pH 8.0, 5 mM NaCl, 1 mM EDTA, 1 mM DTT, 0.1 mg/ml BSA, 0.1 µg/µl poly(dI-dC) (stated for NE reactions), 10 fmol probe, 10 µl, RT 5-10 min; 6% gel 0.5x TBE 4 °C

T1 sequence (Q04206 whole entry, chain 1 of 2): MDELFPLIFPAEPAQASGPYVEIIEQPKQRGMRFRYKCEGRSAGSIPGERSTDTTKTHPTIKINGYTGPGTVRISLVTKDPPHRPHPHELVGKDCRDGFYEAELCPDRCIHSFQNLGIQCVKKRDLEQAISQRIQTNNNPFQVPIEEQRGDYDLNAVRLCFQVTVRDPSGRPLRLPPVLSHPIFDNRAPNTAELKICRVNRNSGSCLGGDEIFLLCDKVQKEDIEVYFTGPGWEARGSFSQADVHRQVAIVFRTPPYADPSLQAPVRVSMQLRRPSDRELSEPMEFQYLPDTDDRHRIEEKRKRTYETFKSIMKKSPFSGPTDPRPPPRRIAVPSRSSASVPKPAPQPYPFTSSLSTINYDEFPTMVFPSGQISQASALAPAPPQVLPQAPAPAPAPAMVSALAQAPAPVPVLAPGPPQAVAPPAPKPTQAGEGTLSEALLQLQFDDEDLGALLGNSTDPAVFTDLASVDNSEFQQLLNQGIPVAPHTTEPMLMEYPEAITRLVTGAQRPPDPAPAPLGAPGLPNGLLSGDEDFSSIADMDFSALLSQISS
T1 sequence (P19838 1-433, chain 2 of 2): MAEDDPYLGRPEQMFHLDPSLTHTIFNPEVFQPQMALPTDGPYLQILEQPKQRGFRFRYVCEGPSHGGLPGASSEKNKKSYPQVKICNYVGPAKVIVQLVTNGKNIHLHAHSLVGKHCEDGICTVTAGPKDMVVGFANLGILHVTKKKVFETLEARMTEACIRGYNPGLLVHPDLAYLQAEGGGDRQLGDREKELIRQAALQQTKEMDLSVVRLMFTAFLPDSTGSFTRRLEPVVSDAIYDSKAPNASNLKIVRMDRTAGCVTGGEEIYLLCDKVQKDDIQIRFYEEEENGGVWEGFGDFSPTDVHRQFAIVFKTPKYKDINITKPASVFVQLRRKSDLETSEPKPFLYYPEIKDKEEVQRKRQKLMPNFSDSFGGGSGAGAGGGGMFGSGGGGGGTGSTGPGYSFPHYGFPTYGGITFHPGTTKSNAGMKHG

Binder	binding result (p65 (RelA);p50 (NF-kB1) [1])	further results
B1	binds	
B2	binds	
B3	binds	
B4		binding result (p65 (RelA);p50 (NF-kB1) [2]): binds
B5		binding result (p65 (RelA);p50 (NF-kB1) [3]): binds
